The record followed here is paper PMC6882875.

Where only a bound is given, the exact number is not on record here.

What all share (assay): EMSA
Holding throughout (conditions): EMSA: binding buffer stock 80 mM Tris-HCl pH 8.0, 20 mM MgCl2, 2 mM DTT, 4 mM EDTA, 400 mM KCl, 40% glycerol (final dilution not stated); poly(dI-dC) …
In general terms: Mobility shift assays separate free from complexed probe on a gel.

The subject of series [1] is MalR1 (Bifidobacterium breve UCC2003).
Series [2] concerns AraQ (Bifidobacterium breve UCC2003).
Series [3] deals with T1, AraQ (Bifidobacterium breve UCC2003), ORF:c628000b.
T1 sequence: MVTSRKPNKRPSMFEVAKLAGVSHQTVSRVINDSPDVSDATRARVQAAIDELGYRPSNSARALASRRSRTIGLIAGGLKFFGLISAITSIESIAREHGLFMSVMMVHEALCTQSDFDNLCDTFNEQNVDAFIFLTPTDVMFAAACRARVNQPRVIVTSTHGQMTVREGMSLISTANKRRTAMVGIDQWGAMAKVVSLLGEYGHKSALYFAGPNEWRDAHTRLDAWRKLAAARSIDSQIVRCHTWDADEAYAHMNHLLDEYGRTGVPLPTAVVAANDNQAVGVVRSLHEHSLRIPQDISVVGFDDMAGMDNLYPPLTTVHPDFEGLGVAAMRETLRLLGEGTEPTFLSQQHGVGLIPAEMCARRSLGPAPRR

The subject of series [4] is T2, MalR1 (Bifidobacterium breve UCC2003), ORF:82221dfa.
T2 sequence: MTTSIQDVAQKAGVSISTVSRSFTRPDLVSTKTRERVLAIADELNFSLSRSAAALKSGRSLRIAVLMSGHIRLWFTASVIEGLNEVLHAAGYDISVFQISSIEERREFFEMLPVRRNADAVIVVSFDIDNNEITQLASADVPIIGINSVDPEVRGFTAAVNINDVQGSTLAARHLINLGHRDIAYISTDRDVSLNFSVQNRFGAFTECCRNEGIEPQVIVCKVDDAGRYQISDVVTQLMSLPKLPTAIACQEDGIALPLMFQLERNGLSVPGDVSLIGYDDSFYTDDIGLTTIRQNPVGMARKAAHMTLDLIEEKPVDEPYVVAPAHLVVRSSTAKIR

With Bbr_1420 promoter, the figures for the binding signal in series [1] and in series [2] were below 15 % bound and 0 % bound, respectively.

Take Bbr_1658 promoter: the binding signal in series [1] and in series [2] was 0 % bound each time.

In the case of Bbr_1659 promoter, the binding signal in series [1] and in series [2] was 0 % bound in each case.

As to Bbr_1841 promoter, the binding signal in series [1] is 0 % bound; in series [2], below 15 % bound.

In series [1], Bbr_1894 (PTS) promoter displayed a binding signal below 15 % bound.

For “CATACGCCTCTCGCTTTCGTCATTGGGCCGACGTCACTGCCGGCACAAAACCGCGACACATGTATGCGTCTTGGTCAACGCTGAATCGTCTCATCACTGAAATGATTTAACGTTTAATCACTTGCGTGATTCATAATATATCGTTTAATCACAGGGGTCAATCAGCGTGTCGAGAGCGTTAACAATCGCGTCCTAACGCCATTACCAGCACATCAGAAACACAATATGGCACAAAAAAAGACAAAATATTGGCGGCGAAGGACTATTGAGC (double strand) [rbsA1 promoter]”, the binding signal is 0 % bound in series [3] and “binds” in series [4].

For “CGAATGCCATATCCGTCTCCTCCTTGCGGCTTACTGCAGCGTTAGAAATGCACAATTCAAATGTACCCTTCTTATAACCGACGCCCGCAAGGTCGTGTCATGCGTCAAACTCTTTTACTGCAGACATTTTTGAGGCTTCTGCTGTTTTCGTGGGCTAGCTGACTGGTTCCGGTAGTCGGATGTCGAGTCCGCCGCATCTGAGCATGATC (double strand) [Bbr_1420 promoter]”, the binding signal is 0 % bound in series [3] and below 15 % bound in series [4].

As to “CGACAGCTTCCTTGCCATGCTGGCCCTCCTTTATTTTCCAACCCTCGGTTTTCCGCATTGTGCAATCTGCATTGTTTGCCTTGCGGAATCTTAGGAAATTATTTTCCTAAAATGTTTTCTTGAGATAAGATTATAGGACGCCAACGTCAGTGTCAACACGGCGGGTCGAGGGTCGCACAACCCGGACCGAACGGCCCACAATGGCGACGTAGCAAGGAACAGAACGCTACGCCCTTGTACACTGATACAGAGGAAAACAGGCAGGAGGGGAGACATGAACATCAGGGACATCGCACGC (double strand) [Bbr_1841 promoter]”, the values for the binding signal in series [3] and in series [4] were below 15 % bound and 0 % bound, respectively.

Consider “CTTCGCCACGTCATACACCGTTGCCCTACGCATGATTCCTACTTTAATCGATTCCGGAGGTCAGCACACGTTCGACCTGAATCTAAAAAAAGTTTTAGTGGCTTTCCTGTCAATCTCGCATGCATACTTCAGGTTACGGGCGCAGCACCCAATAATGGGTACCGCGCCTTAATGACCGCTACACGAGCAGTCTCAGCAACTGGTAAAGCTGCCATAGGCTGCGCACGTTG (double strand) [Bbr_1659 promoter]”, for which the binding signal in series [3] and in series [4] was 0 % bound each time.

In the case of “GATGAGTGCGCGTGAGAAGAAGAAGGCTGCCGTAGAAGCGAAATAATCGGTGCATGGCCGCTCTGCAGATATATGGAGGGCGGTCTGCGAACCGCCGGGAATGGGTTGCCAATCCCGGCGGTTTGTGTATCCGTGGCGCAGTACAGTCGTAAAGGAAGGCAAGGAGGACAACCATGGCGGAAGGTGTACCGAAGTATATTGCGGTTAGGGACAATCTTCGCCAGCGTG (double strand) [gntR promoter]”, the binding signal in series [3] and in series [4] was 0 % bound throughout.

For the substance “GCGTTCTATCCTTGCACTGAGCCACGAAAGACGGCATTGTGCAAACGATGGCATACTGTGGGATGCGGAATGACAAGACATGTGATACTCTCTGACTGAGAACGTATGCAACAACTGTCTGCCAACGCTGTTACAGAGAGTTCATGCACACGTTTATGCGACGATACCAATCGCGCGGCATAATAAGCACGGGCACTTATCCCGGAAGGAAAGTCAGAATG (double strand) [glgP1 promoter]”, the binding signal entry in series [3] is “binds”; in series [4], 0 % bound.

In the case of “GCTCGCTTTTGCCATGGCAACCTCGCTCATCAACAGTGGATAACAATCCCGCTCAAAAGACAACGTTATCATACCTAAGCGAGCAACATGCACGCCACGCTGTCTATTTAGAAGTGCAACGCCCCTGTTCGTCGGCTAATTCTTGCAGTTCGTCGGTGAATGCCCCGGGCCCCCGGATTCAACTTGTAAGTGCAACGGCTGGTTTCGG (double strand) [malR2 promoter]”, the figures for the binding signal result in series [3] and in series [4] were “binds” and 0 % bound, respectively.

As for “GGTCAAGCTCATCGTGCGGGGCAGCTGTGGGTGCTGATTATTTCTTGAAGAAGGCTAAATAAGGCTTTTGAGACCTCCTGCAGGGGAGTCACTGTTGATGCTGTTTCGTCGTGTCGAATCGGTTCGCGAGTTGACAAACAAAAAACTATGCGCTTAAATATTAATCACAATCTACGCGGTTAGATTGTTGAGAAGTAACAGTTCAAGGAGGAACGAGGAATGAAGCGAAGCATGTTCAAGATGGCGACTGCCATCATCGCCAGTGCGGCTATGCTGACCAG (double strand) [Bbr_1658 promoter]”, the binding signal in series [3] and in series [4] was 0 % bound in each case.

As for “GGTTGTCGTAATCCTCGGTGGAAGGACCGATGGTGTCTACGATCTTGGCTTTACGCATGAATGCCTGCCTATTCTTGTTCTTTTTTGGTTCGAGGCGCGATTGCCTCACTTGCCGCAGCCCAGTCTACTAGCGCAGACCGGCTCATGACAAGTTTATTCCCCGGTGTGTTGTGAGCGCTCACACTGTTGCGCCGATTGGGTTTTGAGGGGTTGATTTCCCTATGATTTCAGGCCTTCTCAGCG (double strand) [pyk promoter]”, the binding signal result in series [3] and in series [4] was “binds” each time.

Consider agl3 promoter, for which the binding signal in series [1] and in series [2] was 0 % bound throughout.

Substance cldE promoter came in with a binding signal in series [2] of 0 % bound.

With cldR promoter, the binding signal in series [1] and in series [2] was 0 % bound in each case.

With glgP1 promoter, the binding signal in series [1] is 0 % bound.

Take glgP2 promoter: the binding signal in series [1] and in series [2] was 0 % bound in each case.

As for gntR promoter, the binding signal in series [1] and in series [2] was 0 % bound throughout.

malE promoter displayed a binding signal in series [1] of 0 % bound.

As for malG2 (F2) promoter, in series [1], the binding signal is 0 % bound.

As for malQ promoter, the binding signal in series [1] is 0 % bound; in series [2] it was below 15 % bound.

In series [1], malR2 promoter had a binding signal of 0 % bound.

In the case of malR3/apuB intergenic region, the binding signal in series [1] and in series [2] was below 15 % bound in each case.

With malR5/malE2 intergenic region, the binding signal in series [1] and in series [2] was below 15 % bound in each case.

nrdH promoter had a binding signal in series [1] of 0 % bound.

rbsA1 promoter came in with a binding signal in series [2] of 0 % bound.
